# Experimental data from the supplement of paper PMC7877785.
# ± gives the uncertainty stated by the source.
# Test: self-splicing fitness, log relative to wild type (ln ratio); higher = more splicing; Tetrahymena group I intron in knt gene, E. coli kanamycin selection, DiMSum; sequences stand for … in CUCUCU…GGAGGGAAAAGUUAUCAGGCAUGCACCUGGUAGCUAGUCUUUAAACCAAUAGAUUGCAUCGGUUUAAAAGGCAAGACCGUCAAAUUGCGGGAAAGGGGUCAACAGCCGUUCAGUACCAAGUCUCAGGGGAAACUUUGAGAUGGCCUUGCAAAGGGUAUGGUAAUAAGCUGACGGACAUGGUCCUAACCACGCAGCCAAGUCCUAAGUCAACAGAUCUUCUGUUGAUAUGGAUGCAGUUCACAGACUAAAUGUCGGUCGGGGAAGAUGUAUUCUUCUCAUAAGAUAUAGUCGGACCUCUCCUUAAUGGGAGCUAGCGGAUGAAGUGAUGCAACACUGGAGCCGCUGGGAACUAAUUUGUAUGCGAAAGUAUAUUGAUUAGUUUUGGAGUACUCGUGGUCG
# Summary of the method: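 DiMSum derived fitness as the error-weighted combination of fold changes across replicates, kanamycin versus no kanamycin, normalised to wild type. E. coli BL21(DE3) held the library, which randomised all eight P1ex-region intron nucleotides within the knt kanamycin-resistance gene on pET-22b(+). Six replicate transformations grew overnight at 37°C or 30°C on LB agar with or without 25 μg/mL kanamycin, also containing 100 μg/mL carbenicillin, 50 μM IPTG and 0.2% rhamnose, and pooled colonies were amplicon-sequenced on an Illumina HiSeq 2500.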
Sequence,self-splicing fitness (ln) (30 °C),self-splicing fitness (ln) (37 °C)
ACACAGCAAUAUUACGACCC,-0.35 ± 0.14,-0.0588 ± 0.2
AAGGAGCAAUAUUACGUAUA,-2.76 ± 0.21,-2.85 ± 0.29
ACUAAGCAAUAUUACGCACU,-0.0279 ± 0.082,-0.417 ± 0.08
GUCAAGCAAUAUUACGAAGG,-4.64 ± 0.2,-3.95 ± 0.36
CCGAAGCAAUAUUACGGGUG,-0.732 ± 0.047,-0.639 ± 0.061
AAUGAGCAAUAUUACGGAGG,-2.69 ± 0.33,-2.45 ± 0.38
CCGGAGCAAUAUUACGUCAU,-4 ± 0.24,-2.48 ± 0.21
UUUUAGCAAUAUUACGAAUA,-1.26 ± 0.25,-1.04 ± 0.16
UUGCAGCAAUAUUACGGAUU,-2.96 ± 0.23,-2.91 ± 0.33
UAUCAGCAAUAUUACGAUCU,-0.554 ± 0.1,-0.0299 ± 0.098
GCGUAGCAAUAUUACGUGGU,-3.53 ± 0.19,-3.64 ± 0.22
UGUGAGCAAUAUUACGAAGA,-2.48 ± 0.37,
GUACAGCAAUAUUACGCGGG,-1.5 ± 0.092,-2.71 ± 0.15
CGACAGCAAUAUUACGAUCC,-0.0657 ± 0.16,-0.196 ± 0.19
UGCCAGCAAUAUUACGGCGA,-0.122 ± 0.072,0.211 ± 0.093
CAAUAGCAAUAUUACGAUUA,-1.2 ± 0.12,-0.352 ± 0.11
UCGAAGCAAUAUUACGUGCG,-1.07 ± 0.086,-0.299 ± 0.1
CUCUAGCAAUAUUACGAGAC,,-1.17 ± 0.26
GAGCAGCAAUAUUACGCCAG,-2.49 ± 0.42,-2.85 ± 0.34
GGCAAGCAAUAUUACGACGU,-0.0263 ± 0.086,0.872 ± 0.12
CGGUAGCAAUAUUACGGGGU,-4.08 ± 0.3,-2.81 ± 0.22
GUGUAGCAAUAUUACGAGUA,,-1.56 ± 0.19
GGUGAGCAAUAUUACGUUGC,-3.27 ± 0.35,
CACUAGCAAUAUUACGGAGC,-4.52 ± 0.28,-2.8 ± 0.15
GAUAAGCAAUAUUACGACGC,0.303 ± 0.055,-0.0161 ± 0.063

Sequence,self-splicing fitness (ln) (30 °C),self-splicing fitness (ln) (37 °C)
GUUAAGCAAUAUUACGCAAA,-2.21 ± 0.27,-2.21 ± 0.22
GAGAAGCAAUAUUACGGUCU,-2.29 ± 0.13,-1.16 ± 0.17
UUGUAGCAAUAUUACGCAGG,-1.6 ± 0.24,0.28 ± 0.17
CUAGAGCAAUAUUACGUCUC,-3.75 ± 0.2,-2.76 ± 0.25
UUUCAGCAAUAUUACGGUCU,-1.45 ± 0.086,-0.667 ± 0.087
AUAAAGCAAUAUUACGUCAA,-1.54 ± 0.088,-0.873 ± 0.094
UCGCAGCAAUAUUACGCUCG,-3.23 ± 0.28,-1.61 ± 0.2
UCAUAGCAAUAUUACGCUUU,-3.91 ± 0.24,-2.41 ± 0.25
CCAGAGCAAUAUUACGCAAC,-4.18 ± 0.24,-2.94 ± 0.12
GAGCAGCAAUAUUACGGCUG,-3.87 ± 0.26,-2.51 ± 0.28
ACACAGCAAUAUUACGCUGG,-1.21 ± 0.063,-1.33 ± 0.091
GGAUAGCAAUAUUACGGACA,-1.68 ± 0.16,-0.273 ± 0.16
AAAUAGCAAUAUUACGUAAC,-2.1 ± 0.2,-0.398 ± 0.2
AAUUAGCAAUAUUACGACUG,-1.11 ± 0.1,-0.677 ± 0.11
AUGAAGCAAUAUUACGUCCC,0.721 ± 0.15,-0.534 ± 0.14
ACGAAGCAAUAUUACGCCCC,-0.521 ± 0.21,-2.24 ± 0.39
ACGCAGCAAUAUUACGCGGU,-4.57 ± 0.19,-2.37 ± 0.12
CUCGAGCAAUAUUACGGGUC,-3.33 ± 0.28,-1.77 ± 0.31
GGCUAGCAAUAUUACGAAUU,-0.487 ± 0.19,-0.299 ± 0.15
GGGAAGCAAUAUUACGUACG,-0.982 ± 0.15,-0.441 ± 0.18
CCACAGCAAUAUUACGUGGC,-3.84 ± 0.12,-2.86 ± 0.12
GACGAGCAAUAUUACGCGGG,-3.48 ± 0.47,-2.61 ± 0.36
CCUCAGCAAUAUUACGACAC,-4.04 ± 0.28,-2.5 ± 0.29
GUGUAGCAAUAUUACGGCUU,-0.494 ± 0.078,0.195 ± 0.11
